Source: patent US7740853

Biological target: mouse low affinity IgE receptor FcεRII (mouse) (UniProt P20693)
Test: FACS analysis of 0.12A3 cells with the B3B4 antibody

Chain of UniProt P20693 (P20693 whole entry): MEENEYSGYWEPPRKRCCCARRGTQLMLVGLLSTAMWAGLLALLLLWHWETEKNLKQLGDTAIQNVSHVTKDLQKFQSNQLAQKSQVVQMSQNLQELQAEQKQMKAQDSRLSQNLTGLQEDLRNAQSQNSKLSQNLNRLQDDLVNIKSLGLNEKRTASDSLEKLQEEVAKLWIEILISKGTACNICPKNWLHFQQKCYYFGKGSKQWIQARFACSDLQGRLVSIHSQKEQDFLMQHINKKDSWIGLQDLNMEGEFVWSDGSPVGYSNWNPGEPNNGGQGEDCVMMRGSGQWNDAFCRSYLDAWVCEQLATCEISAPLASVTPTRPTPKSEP

Substance “B3B4 antibody against the FcεRII receptor (Pharmigin)” has a percent of cells on which the receptor was expressed of 54%.
